Results published in patent US20180215801A1.

Target: Activin B (UniProt P09529)
Assay: SPR (Biacore 2000), Fc fusion captured on anti-human Fc chip, ligand injected, 1:1 Langmuir fit

Sequence of Activin B (P09529 293-407 limits assumed): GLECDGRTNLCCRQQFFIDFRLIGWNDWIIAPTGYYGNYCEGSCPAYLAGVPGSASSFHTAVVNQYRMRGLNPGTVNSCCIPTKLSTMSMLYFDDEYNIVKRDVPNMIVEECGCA

Kd: 0.8 nM
koff: 0.00042 s⁻¹
kon: 510000 M⁻¹ s⁻¹
Substance: BMPRII-Fc (BMPRII (1-120) fused to hIgG1-Fc) (from UniProt Q13873 27-120) (Fc fusion)
